The labels stand for the following.
T1: pumilio homolog 1 (Drosophila) (human, UniProt Q14671 2-1186)
T1 construct: also called PUM1; cbe_4540466
T1 sequence: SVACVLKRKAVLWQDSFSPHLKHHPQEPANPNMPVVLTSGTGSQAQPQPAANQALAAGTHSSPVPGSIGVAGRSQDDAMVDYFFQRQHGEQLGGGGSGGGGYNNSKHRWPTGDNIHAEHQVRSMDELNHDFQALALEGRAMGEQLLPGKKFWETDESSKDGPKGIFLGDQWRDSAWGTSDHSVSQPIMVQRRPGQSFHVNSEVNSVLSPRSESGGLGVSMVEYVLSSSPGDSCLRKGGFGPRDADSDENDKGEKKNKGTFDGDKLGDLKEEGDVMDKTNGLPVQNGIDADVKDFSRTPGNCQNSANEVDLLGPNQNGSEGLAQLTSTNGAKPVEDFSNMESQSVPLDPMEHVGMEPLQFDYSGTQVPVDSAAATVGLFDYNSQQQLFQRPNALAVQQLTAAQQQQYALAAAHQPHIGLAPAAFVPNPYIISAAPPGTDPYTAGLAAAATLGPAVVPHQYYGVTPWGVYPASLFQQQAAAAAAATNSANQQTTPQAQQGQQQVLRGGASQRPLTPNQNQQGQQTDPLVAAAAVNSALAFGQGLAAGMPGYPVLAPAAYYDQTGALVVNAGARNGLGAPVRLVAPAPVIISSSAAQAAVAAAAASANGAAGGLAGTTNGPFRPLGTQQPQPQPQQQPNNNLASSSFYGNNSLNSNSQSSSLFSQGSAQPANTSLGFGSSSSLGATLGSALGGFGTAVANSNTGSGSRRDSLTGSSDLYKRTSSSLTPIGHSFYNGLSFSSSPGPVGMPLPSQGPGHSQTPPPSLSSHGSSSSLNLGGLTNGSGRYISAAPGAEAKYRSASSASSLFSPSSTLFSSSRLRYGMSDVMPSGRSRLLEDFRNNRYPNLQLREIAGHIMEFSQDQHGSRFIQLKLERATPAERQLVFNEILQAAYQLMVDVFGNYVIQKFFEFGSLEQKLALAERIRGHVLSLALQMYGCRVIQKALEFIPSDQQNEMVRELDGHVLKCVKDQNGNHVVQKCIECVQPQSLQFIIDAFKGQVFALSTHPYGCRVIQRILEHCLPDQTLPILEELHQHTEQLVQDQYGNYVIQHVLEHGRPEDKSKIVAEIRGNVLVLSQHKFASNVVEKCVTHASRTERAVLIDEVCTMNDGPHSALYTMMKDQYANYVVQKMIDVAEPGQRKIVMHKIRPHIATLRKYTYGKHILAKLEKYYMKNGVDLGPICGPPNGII

T2: EphB1 (human, UniProt P54762 18-984)
T2 construct: also called cbe_3810791
T2 sequence: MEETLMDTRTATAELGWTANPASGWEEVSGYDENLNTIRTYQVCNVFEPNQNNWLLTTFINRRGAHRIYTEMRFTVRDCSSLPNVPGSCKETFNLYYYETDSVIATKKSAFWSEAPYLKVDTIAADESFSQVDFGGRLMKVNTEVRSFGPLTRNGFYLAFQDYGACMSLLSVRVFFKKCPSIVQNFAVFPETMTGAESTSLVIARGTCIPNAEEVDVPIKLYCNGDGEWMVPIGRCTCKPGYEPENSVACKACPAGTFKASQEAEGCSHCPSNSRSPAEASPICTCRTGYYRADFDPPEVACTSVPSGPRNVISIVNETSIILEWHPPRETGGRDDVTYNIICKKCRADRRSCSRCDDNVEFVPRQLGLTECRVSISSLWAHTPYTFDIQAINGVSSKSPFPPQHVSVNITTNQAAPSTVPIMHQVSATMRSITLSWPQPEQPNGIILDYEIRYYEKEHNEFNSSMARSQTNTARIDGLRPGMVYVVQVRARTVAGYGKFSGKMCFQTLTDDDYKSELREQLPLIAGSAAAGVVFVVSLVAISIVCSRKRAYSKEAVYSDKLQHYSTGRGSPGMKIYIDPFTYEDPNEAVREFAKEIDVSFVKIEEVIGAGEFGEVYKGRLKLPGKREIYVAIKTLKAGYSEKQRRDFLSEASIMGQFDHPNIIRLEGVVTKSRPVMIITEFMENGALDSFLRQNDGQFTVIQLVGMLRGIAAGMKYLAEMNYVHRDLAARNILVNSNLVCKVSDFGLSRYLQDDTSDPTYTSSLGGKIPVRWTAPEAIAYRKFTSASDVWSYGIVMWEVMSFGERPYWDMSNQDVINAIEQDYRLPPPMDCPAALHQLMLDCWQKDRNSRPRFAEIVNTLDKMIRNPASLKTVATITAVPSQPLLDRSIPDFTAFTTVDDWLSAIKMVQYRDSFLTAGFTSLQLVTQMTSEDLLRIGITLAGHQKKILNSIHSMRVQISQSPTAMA

B1: Human Papillomavirus 1a L2 (other)
chain: MYRLRRKRAAPKDIYPSCKISNTCPPDIQNKIEHTTIADKILQYGSLGVFLGGLGIGTARGSGGRIGYTPLGEGGGVRVATRPTPVRPTIPVETVGPSEIFPIDVVDPTGPAVIPLQDLGRDFPIPTVQVIAEIHPISDIPNIVASSTNEGESAILDVLRGNATIRTVSRTQYNNPSFTVASTSNISAGEASTSDIVFVSNGSGDRVVGEDIPLVELNLGLETDTSSVVQETAFSSSTPIAERPSFRPSRFYNRRLYEQVQVQDPRFVEQPQSMVTFDNPAFEPELDEVSIIFQRDLDALAQTPVPEFRDVVYLSKPTFSREPGGRLRVSRLGKSSTIRTRLGTAIGARTHFFYDLSSIAPEDSIELLPLGEHSQTTVISSNLGDTAFIQGETAEDDLEVISLETPQLYSEEELLDTNESVGENLQLTITNSEGEVSILDLTQSRVRPPFGTEDTSLHVYYPNSSKGTPIINPEESFTPLVIIALNNSTGDFELHPSLRKRRKRAYV
notes: also called HPV 1a L2; cbe_252041
B2: Human Papillomavirus 1a E1 (other)
chain: MADNKGTENDWFLVEATDCEETLEETSLGDLDNVSCVSDLSDLLDEAPQSQGNSLELFHKQESLESEQELNALKRKLLYSPQARSADETDIASISPRLETISITKQDKKRYRRQLFSQDDSGLELSLLQDETENIDESTQVDQQQKEHTGEVGAAGVNILKASNIRAALLSRFKDTAGVSFTDLTRSYKSNKTCCGDWVLAVWGVRENLIDSVKELLQTHCVYIQLEHAVTEKNRFLFLLVRFKAQKSRETVIKLITTILPVDASYILSEPPKSRSVAAALFWYKRSMSSTVFTWGTTLEWIAQQTLINHQLDSESPFELCKMVQWAYDNGHTEECKIAYYYAVLADEDENARAFLSSNSQAKYVKDCAQMVRHYLRAEMAQMSMSEWIFRKLDNVEGSGNWKEIVRFLRFQEVEFISFMIAFKDLLCGKPKKNCLLIFGPPNTGKSMFCTSLLKLLGGKVISYCNSKSQFWLQPLADAKIGLLDDATKPCWDYMDIYMRNALDGNTICIDLKHRAPQQIKCPPLLITSNIDVKSDTCWMYLHSRISAFKFAHEFPFKDNGDPGFSLTDENWKSFFERFWQQLELSDQEDEGNDGKPQQSLRLTARAANEPI
notes: also called HPV 1a E1; cbe_552975
B3: interferon regulatory factor 1 (other)
chain: MPITRMRMRPWLEMQINSNQIPGLIWINKEEMIFQIPWKHAAKHGWDINKDACLFRSWAIHTGRYKAGEKEPDPKTWKANFRCAMNSLPDIEEVKDQSRNKGSSAVRVYRMLPPLTKNQRKERKSKSSRDAKSKAKRKSCGDSSPDTFSDGLSSSTLPDDHSSYTVPGYMQDLEVEQALTPALSPCAVSSTLPDWHIPVEVVPDSTSDLYNFQVSPMPSTSEATTDEDEEGKLPEDIMKLLEQSEWQPTNVDGKGYLLNEPGVQPTSVYGDFSCKEEPEIDSPGGDIGLSLQRVFTDLKNMDATWLDSLLTPVRLPSIQAIPCAP
notes: also called IRF1; cbe_3001381
B4: TRAF interacting protein (other)
chain: MPIRALCTICSDFFDHSRDVAAIHCGHTFHLQCLIQSFETAPSRTCPQCRIQVGKRTIINKLFFDLAQEEENVLDREFLKNELDNVRAQLSQKDKEKRDSQVIIDTLRDTLEERNATVVSLQQALGKAEMLCSTLKKQMKYLEQQQDETKQAQEEAGRLRSKMKTMEQIELLLQSQLPEVEEMIRDMGVGQSAVEQLAVYCVSLKKEYENLKEARKASGEVADKLRKDLFSSRSKLQTVYSELDQAKLELKSAQKDLQSADKEIMSLKKKLTMLQETLNLPPVASETVDRLVLESPAPVEVNLKLRRPSFRDDIDLNATFDVDTPPARPSSSQHGYYEKLCLEKSHSPIQDVPKKICKGPRKESQLSLGGQSCAGEPDEELVGAFPIFVRNAILGQKQPKRPRSESSCSKDVVRTGFDGLGGRTKFIQPTDTVMIRPLPVKPKTKVKQRVRVKTVPSLFQAKLDTFLWS
notes: also called TRIP; cbe_3340492
B5: hypothetical protein FLJ13236 (other)
chain: MAKGLLVTYALWAVGGPAGLHHLYLGRDSHALLWMLTLGGGGLGWLWEFWKLPSFVAQANRAQGQRQSPRGVTPPLSPIRFAAQVIVGIYFGLVALISLSSMVNFYIVALPLAVGLGVLLVAAVGNQTSDFKNTLGSAFLTSPIFYGRPIAILPISVAASITAQRHRRYKALVASEPLSVRLYRLGLAYLAFTGPLAYSALCNTAATLSYVAETFGSFLNWFSFFPLLGRLMEFVLLLPYRIWRLLMGETGFNSSCFQEWAKLYEFVHSFQDEKRQLAYQVLGLSEGATNEEIHRSYQELVKVWHPDHNLDQTEEAQRHFLEIQAAYEVLSQPRKPWGSRR
notes: also called cbe_71919
B6: TDE1 (other)
chain: MGAVLGVFSLASWVPCLCSGASCLLCSCCPNSKNSTVTRLIYAFILLLSTVVSYIMQRKEMETYLKKIPGFCEGGFKIHEADINADKDCDVLVGYKAVYRISFAMAIFFFVFSLLMFKVKTSKDLRAAVHNGFWFFKIAALIGIMVGSFYIPGGYFSSVWFVVGMIGAALFILIQLVLLVDFAHSWNESWVNRMEEGNPRLWYAALLSFTSAFYILSIICVGLLYTYYTKPDGCTENKFFISINLILCVVASIISIHPKIQEHQPRSGLLQSSLITLYTMYLTWSAMSNEPDRSCNPNLMSFITRITAPTLAPGNSTAVVPTPTPPSKSGSLLDSDNFIGLFVFVLCLLYSSIRTSTNSQVDKLTLSGSDSVILGDTTTSGASDEEDGQPRRAVDNEKEGVQYSYSLFHLMLCLASLYIMMTLTSWYSPDAKFQSMTSKWPAVWVKISSSWVCLLLYVWTLVAPLVLTSRDFS
notes: also called cbe_3926508

The target of experiment [1] is T1, pumilio homolog 1 (Drosophila). In words: Y2H; INT ID 452.
The target of a further experiment is T2, EphB1. In words: Y2H; INT ID 448.
The target in a further experiment is T3, GSN (human, UniProt P06396 28-782).
T3 construct: also called cbe_4248793
In words: Y2H; INT ID 449.

The target in another experiment is T4, NDUFAB1 (human, UniProt O14561 69-156).
T4 construct: also called cbe_4269931
In words: Y2H; INT ID 587.

The next experiment addresses T5, TLK2 (human, UniProt Q86UE8 1-772, limits assumed).
T5 construct: Y2H Gal4 fusion; also called cbe_4269167
In words: Y2H; INT ID 584.

Experiment [2] deals with B2. As to the kind of experiment: Y2H; INT ID 581.
Experiment [3] has as its target B2. In words: Y2H; INT ID 582.
For experiment [4], the target named is B2. As to the kind of experiment: Y2H; INT ID 579.
The target in experiment [5] is B2. In words: Y2H; INT ID 583.

T3 sequence (P06396 28-782 limits assumed): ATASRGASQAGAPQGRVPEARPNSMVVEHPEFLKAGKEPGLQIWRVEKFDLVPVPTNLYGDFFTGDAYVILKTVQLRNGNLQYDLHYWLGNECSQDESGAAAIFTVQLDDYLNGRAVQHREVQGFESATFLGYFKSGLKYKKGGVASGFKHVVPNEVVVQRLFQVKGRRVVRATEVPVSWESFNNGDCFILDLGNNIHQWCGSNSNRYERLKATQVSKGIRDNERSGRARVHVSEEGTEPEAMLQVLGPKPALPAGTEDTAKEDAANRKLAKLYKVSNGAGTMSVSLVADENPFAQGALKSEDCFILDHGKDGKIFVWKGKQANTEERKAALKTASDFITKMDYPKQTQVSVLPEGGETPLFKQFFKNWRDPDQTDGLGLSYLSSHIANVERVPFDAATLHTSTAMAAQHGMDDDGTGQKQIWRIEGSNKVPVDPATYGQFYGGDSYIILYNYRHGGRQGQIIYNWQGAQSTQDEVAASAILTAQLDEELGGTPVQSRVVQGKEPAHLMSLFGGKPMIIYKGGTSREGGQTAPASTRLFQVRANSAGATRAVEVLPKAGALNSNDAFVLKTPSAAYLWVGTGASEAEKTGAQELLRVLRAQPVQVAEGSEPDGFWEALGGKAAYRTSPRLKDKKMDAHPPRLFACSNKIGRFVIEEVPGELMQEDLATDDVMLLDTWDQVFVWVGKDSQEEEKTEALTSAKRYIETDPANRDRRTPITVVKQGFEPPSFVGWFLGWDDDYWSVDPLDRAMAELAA
T5 sequence (Q86UE8 whole entry, the tested form may be a part): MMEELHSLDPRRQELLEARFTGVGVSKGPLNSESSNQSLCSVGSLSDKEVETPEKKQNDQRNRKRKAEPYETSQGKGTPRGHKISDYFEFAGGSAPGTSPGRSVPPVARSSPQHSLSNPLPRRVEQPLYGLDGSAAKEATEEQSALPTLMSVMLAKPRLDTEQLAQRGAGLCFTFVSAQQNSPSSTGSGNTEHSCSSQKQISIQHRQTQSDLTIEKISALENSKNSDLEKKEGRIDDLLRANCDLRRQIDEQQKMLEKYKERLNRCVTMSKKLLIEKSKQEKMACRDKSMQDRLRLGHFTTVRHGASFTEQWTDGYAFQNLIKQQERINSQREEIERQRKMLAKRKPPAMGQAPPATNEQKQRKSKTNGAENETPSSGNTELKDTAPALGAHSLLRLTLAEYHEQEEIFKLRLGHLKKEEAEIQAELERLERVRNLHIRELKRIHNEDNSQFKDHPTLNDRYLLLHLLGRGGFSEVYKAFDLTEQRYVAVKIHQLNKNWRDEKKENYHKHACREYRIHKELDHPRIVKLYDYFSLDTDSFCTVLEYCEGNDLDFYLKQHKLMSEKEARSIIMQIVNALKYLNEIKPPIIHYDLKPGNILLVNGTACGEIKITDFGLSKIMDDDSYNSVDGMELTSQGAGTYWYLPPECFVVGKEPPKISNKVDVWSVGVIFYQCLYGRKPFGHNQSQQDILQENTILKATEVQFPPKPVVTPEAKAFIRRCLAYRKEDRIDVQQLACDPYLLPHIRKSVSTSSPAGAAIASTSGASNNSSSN

For B1, the binding result (in experiment [1]; with EphB1; in the experiment with GSN) was “binds” each time.
On to B2, for which the binding result with NDUFAB1 and with TLK2 was “binds” each time.
B3: the binding result in experiment [2] is “binds”.
Consider B4, for which the binding result in experiment [3] is reported as “binds”.
In the case of B5, the binding result in [4] is reported as “binds”.
On to B6, for which the binding result in experiment [5] was “binds”.

The values above are taken from US20050100554A1 (published 2005).
